The results in this text go back to patent publication US20030044888, “NOVEL STEROID-ACTIVATED NUCLEAR RECEPTORS AND USES THEREFOR” (published 2003).

The series deals with SXR/RXR heterodimer (Homo sapiens, UniProt O75469;P19793 O75469:1-434,P19793:1-462). Kind of series: EMSA; mutations prevented heterodimer binding; 10 mM Tris pH 8, 100 mM KCl, poly dI:dC, room temp. The conditions noted are these: tags: TNT (Promega); SXR initiator Leu changed to Met. As to the method: Electrophoretic mobility shift assays were performed using in vitro transcribed, translated proteins (TNT, Promega ). Proteins (1 μl each) were incubated for 20 minutes at room temperature with 100,000 cpm of Klenow-labeled probes in 10 mM Tris pH 8, 100 mM KCl, 6% glycerol, 0.05% NP-40, 1 mM dithiothreitol (DTT), 100 ng/μl poly dI:dC (Pharmacia, Piscataway, N.J.) and then electrophoresed through a 5% polyacrylamide gel in 0.5× TBE (45 mM Tris-base, 45 mM boric acid, 1 mM ethylenediaminetetraacetic acid (EDTA) at room temperature. For competition binding, protein plus unlabeled oligonucleotides at five or fifty fold molar excess were preincubated for ten minutes on ice, then labeled probes were added and incubated for 20 minutes at room temperature. Electrophoresis was as above. The IR series oligonucleotides tested had the following sequences: […]
SXR/RXR heterodimer, sequence (O75469 whole entry, chain 1 of 2): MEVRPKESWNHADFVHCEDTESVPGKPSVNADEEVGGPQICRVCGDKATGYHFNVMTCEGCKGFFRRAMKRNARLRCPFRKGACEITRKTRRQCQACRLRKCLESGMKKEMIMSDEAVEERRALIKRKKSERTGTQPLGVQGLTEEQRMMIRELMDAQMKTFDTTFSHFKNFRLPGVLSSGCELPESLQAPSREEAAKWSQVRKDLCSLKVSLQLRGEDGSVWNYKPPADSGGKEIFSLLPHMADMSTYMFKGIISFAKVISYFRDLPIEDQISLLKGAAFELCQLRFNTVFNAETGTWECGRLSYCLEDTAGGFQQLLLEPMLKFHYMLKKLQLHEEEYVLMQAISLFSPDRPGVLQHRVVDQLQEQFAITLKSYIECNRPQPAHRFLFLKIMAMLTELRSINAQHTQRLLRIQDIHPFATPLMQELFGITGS
SXR/RXR heterodimer, sequence (P19793 whole entry, chain 2 of 2): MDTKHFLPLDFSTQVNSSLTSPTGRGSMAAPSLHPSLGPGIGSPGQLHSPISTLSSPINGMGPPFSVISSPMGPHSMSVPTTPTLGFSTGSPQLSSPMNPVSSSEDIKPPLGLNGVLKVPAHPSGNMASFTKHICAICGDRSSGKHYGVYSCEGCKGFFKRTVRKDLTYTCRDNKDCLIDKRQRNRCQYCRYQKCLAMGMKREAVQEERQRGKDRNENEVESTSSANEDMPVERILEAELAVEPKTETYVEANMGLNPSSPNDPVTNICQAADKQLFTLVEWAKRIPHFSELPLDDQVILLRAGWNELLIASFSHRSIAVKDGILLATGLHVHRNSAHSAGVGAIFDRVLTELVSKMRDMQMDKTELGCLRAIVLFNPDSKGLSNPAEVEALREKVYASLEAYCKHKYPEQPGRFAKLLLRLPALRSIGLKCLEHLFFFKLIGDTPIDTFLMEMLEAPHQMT

B1: IR-M (dsDNA)
DNA 1: AGCTTACGTCATGACGTA
DNA 2: TACGTCATGACGTAAGCT
B1: the binding result is listed as “no binding”.
